Results reported in paper doi:10.1101/2025.04.11.646618.

Key:
RPS4-HF (Arabidopsis) = RPS4-HF (Arabidopsis) (UniProt Q9XGM3); experiment: co-IP
YFP-RPS4 (Arabidopsis) = YFP-RPS4 (Arabidopsis) (UniProt Q9XGM3); experiment: co-IP

| stoichiometry N (RPS4-HF (Arabidopsis)) | stoichiometry N (YFP-RPS4 (Arabidopsis)) | Substance |
| --- | --- | --- |
| 1 |  | RRS1-R-GFP (receptor) |
|  | 1 | RRS1-R-HF (receptor) |
